Experiment: label from the status in PepcDB records

Row | Sequence | protein production
1 | MYKSPLTLLTLLTICFGFFDLSSALYGSSSPVVQLTASNFKSKVLNSNGVVLVEFFAPWCGHCKALTPTWEKVANILKGVATVAAIDADAHQSAAQDYGIKGFPTIKVFVPGKAPIDYQGARDAKSIANFAYKQIKGLLSDRLEGKSKPTGGGSKEKKSEPSASVELNASNFDDLVIESNELWIVEFFAPWCGHCKKLAPEWKRAAKNLQGKVKLGHVNCDVEQSIMSRFKVQGFPTILVFGPDKSSPYPYEGARSASAIESFASELVESSAGPVEVTELTGPDVMEKKCGSAAICFISFLPDILDSKAEGRNKYLEMLLSVAEKFKKQPYSFMWVAAVTQMDLEKRVNVGGYGYPAMVAMNVKKGVYAPLKSAFELQHLLEFVKDAGTGGKGNVPMNGTPEIVKTKEWDGKDGELIEEDEFSLDELMGGDDAVGSKDEL | failed
2 | MQQVGFGTWNWVAVIVYLVLMLLVGAYFTKRASQNTDSFFTASGRLPSWAVGFSIYATTLSAITFMSTPEKAFLTDWSYIAGNIAIVAIIPLLIYFYVPFFKKLKVTSAYEYLEARFRPSVRVIGSLLFVLFHLGRVAIVIYLPTLAITAVSDLNPYVVASLVGILCILYTFLGGFEGVVWSDFIQGIILLGGAAAIIILGIIHIKGGMGTVVTDALDHKKLISADNWKFNTAAAAIPIIFLGNIFNNLHQYTASQDVVQRYQASESMSETKKSLWMNGVLALISAPLFYGMGTMLYSFYTHESALPEGFNTSSIVPYLILTEMPPFIAGLLIATIFAAAQSTISSSLNSISACLSVDIKHRIFGKGKEKDEVTFARWMIILSGLFGFGMSIYLIASDSNDLWDLFLLITGLVGVPLAGVFAVGIFTKRTNTLGVICGLALGIIFAYIFNGIGGGNSPFFVSIISFLVAFIFSYLIRIVIPDKKKDIVGLTIFDIKEKSNYVSKIHVKK | failed
3 | MAKASSPTDTGKQKVRSAEVGTDILKALAELSPSTSLSRLAEHVQMPASKVHRYLQALIASGFAEQDAATNHYGLGREALRVGLAALGSIDVLKVAAMPLSQLRDELNESCFIAVWGNQGATVVSIEPAVRAVTVVTQIGSVLPLLSSSTGLVFAAYLPERETQELRDRELAALQQTASDYHTLLAGIREKGLHHVHGLLMPGVDALSAPVFNAMGQIAAVMTVVGPTSIFHADEHGPAAQSLLTAARTVSWRMGYAGNPHCASTSSVSSSTSQSSS | failed
4 | MTENGRYEYIVIGSEAAGVGLVRELTAAGKKVLAVDKSKEKIELLEDEGFDAVIADPTDESFYRSLDLEGVSAVLITGSDDEFNLKILKALRSVSDVYAIVRVSSPKKKEEFEEAGANLVVLVADAVKQAFMDKIKKMETL | not failed
5 | MPINTPENISDNTSETSPELLHFNQLNLPPALLTRLDEIGYQQMTPVQSLSLPVILNNTDAVVRADTGSGKTTAFALTLLAKLEAKSFSPQALVLCPTRELAHQVADEVRKLAKSMLNIKILTLCGGEPSRIQTNSLEHGAHVLVGTPGRVLDHLEQRNVDLSMLTTLVLDEADRMLEMGFQDSLNAIVKHIPKTRQTLLFSATYPKNIAALAEQVTTKARNIEAIQEQAKPQIEQLFYAMNNEDSAQLVMNLLGDHQPENCLVFCNTKNEVKDIFNTLRANKFSVLALHGELEQKDRDQAIIQFSNGSARVLIATDVASRGLDIAELDLVISVNMAHDLDTHTHRIGRTGRAGKEGVAITLIAEKDDYKMRLLEDTFAEPIQVKPAPALSNNRPLKANMSTIQVSGGKKDKLRPGDIVGALTKDNVLSADDIGKIKLESTFGFVAVNSRLAKHALGLINNNKIKGKKFRAKVL | failed
6 | MTDWIQNLMDSMGYLGILLLMVLENVFPPIPSELIMPSAGFAAARGDMSLGMVVLMGTLGSVIGTLPLYYIGRAFGEDKLVAWADKHGKWLTLSGKDIKKADAWFDRYGAGAVLFGRMVPGIRSLLSLPAGMSEMPLPKFLIYSAIGSALWSAALAYAGYALGENYDRVEQYVAPVSKVIVGLLVIGAAAWFIRRKREQGSRTGG | failed
7 | MLKLSCNVTDHIHNLFSNSRRIFVPVHRQTRPISCFQLKKEPLRAILSADHGNSSVRVADTVSGTSPADRLRFGRLMEDGFSYKEKFIVRSYEVGINKTATIETIANLLQEVACNHVQNVGFSTDGFATTLTMRKLHLIWVTARMHIEIYKYPAWSDVVEIETWCQSEGRIGTRRDWILKDCATGEVIGRATSKWVMMNQDTRRLQRVTDEVRDEYLVFCPPEPRLAFPEENNSSLKKIPKLEDPAQYSMLGLKPRRADLDMNQHVNNVTYIGWVLESIPQEIIDTHELKVITLDYRRECQQDDIVDSLTTSETPNEVVSKLTGTNGSTTSSKREHNESHFLHILRLSENGQEINRGRTQWRKKSSR | failed
8 | MTLAPRHLRIEQRGRVLQVLLDNPPANFLTTAVMQELADLLEDLEQRQDIGAVILSGAADGVFLTHFDVDEIERAVAPITFSMPAWLTRLLLESESLLRHLPGARKLLRRTLLAGVADMNLFHEVTAHMRRMDKVFIAAINGLALGGGCELALACDLRLMAEDDQVERFLGQPEVLIGLIPGGGGTQMLARSLGVARALELCLEGQLLEPRQALALGLVNGLAPAEELLEAADALAQRLSRRSPQAVRLIKRSIYQAASRDWTEGMASEKAGFLSAASQGNTRRAMREYIERVRTITREERPFRRADFDDLTEGNAID | failed
9 | VVQRAAETYDLLKQRTEELRRANAQMSLLTVLVQVTQASNSLEAILTPIATAFAESFAVNACILQMLEGQTLSTIQGFYSQQGTVNNWLNQDPLTNEAIATGQIQVAANIAKDPKLASISQYQDNGIQSHVVIPITYRNEMLGVLSLQWQQPISLREDELTLIHLSAQLVAIALTSSRCSL | not failed
10 | ILHRDADFLLRALQPDDFVRTSRYENANREHLAPWEPLRDPGYFSVDNARARTLLQVASMDEGEALLLLLLDPDDGEVLGRCSYTNIVRGVFQACHLGFSLAAAAQGRGLMARALRVANRYCFEQLGLHRIMASHLPRNARSERLLESLGFEKEGYARAYLKIAGVWEDHVLR | failed
11 | ETPVGLNLELTDQDGRPMFPDGSAVPYERTRKLVARLAAPLRATSLRVIIVGHTAATVVQAGDDDPLSLSVNRANAVREVLKQEGLPSSQVLSLVGKGDGEPLFPDAPALAANRRVTITLMRENPPLPPDLQR | failed
12 | MSKKSGLSFLWLSAVAFVIDLLTKYIVVQKFDLYESVNVLPVFNLTYVRNYGAAFSFLADHSGWQQYFFILLALAISGMLVYFLAKNNAEQKIQNSAYALIIGGALANMVDRAYNGFVVDFFDFYWDIYHYPVFNIADIAICIGAGLLVLDAFKSEKKKVQDKQVEKCGQK | failed
13 | MGHHHHHHSHMVTHSKFPAAGMSRPLDTSLRLKTFSSKSEYQLVVNAVRKLQESGFYWSAVTGGEANLLLSAEPAGTFLIRDSSDQRHFFTLSVKTQSGTKNLRIQCEGGSFSLQSDPRSTQPVPRFDCVLKLVHHYMPPPGAPSFPSPPTEPSSEVPEQPSAQPLPGSPPRRAYYIYSGGEKIPLVLSRPLSSNVATLQHLCRKTVNGHLDSYEKVTQLPGPIREFLDQYDAPL | failed
14 | MFSRVPAKSIARFRCVSESIHRRPDVTEQSLTKSMSRPRLLFALEVNKDLLFFSSPQPQNPYDNSSLVATPYKRFPKYLPTRICTTLGGLVFLQKWLRKKTRVICNPVSGDYITLPKVKATGVGESYFGFDPITKQFKVLCMTWSRYGTPNTHQVLTLETGKRLWRTIQDPILPHYRSFDRICINGVLYYGADFEESQSSKIVCFDFRFEKFSFINIADEGMFRGSYKWTLFNYKGKLGAHQYSRNGELVLWVLEDAENHKWSKSICILPPIVHNSRIVGVTGTGEIVFSPYACYMPSPFYIFFYNIQTKTCTRVHVKGFEEFKHNFTLLHTFLDFVEDTKFM | failed
15 | MLAGHLFAGVGEDVRLFKGITMTYGHNIELGDNAVVHDGVHLDDRGELVVGARASVSNGAHLYTHDHDVVDQTDVTNYRTEIGADARVTQGALVRAGVRVGENALVGSRSVVQGDVPAHHIAVGSPAESVRVKPGWLEHHHHHH | failed
16 | MDYNQTVLSHLQKFWKHHDIKGFTWTLGRIVEELPDFQVFQVIPNHEDEPWVYVSSGIGQFLGQEFFIISPFETPEHIETLAMLASASMHYPDQFQLGKTVNIGRPWVEQSSFRHFLISLPYPYGQELEYMDNVRFFWLLPITQTERLFLNTHSVEELETKFDEAGIDYLDINRASTVWQAG | not failed
17 | MKLAVISSIYKNDSLSKIKQSLQSLLNQENVTCDIYLYCDGPVSIDIVHFLDSFDQNSLYIFKQEQNRGLAHALNELLNIVLTKEYEYIARMDADDISMPERFVKQIAFMNSHPDIDCLGTWAIEIDDDGKEYFRKKMPITHEECLELFKKRDCMIHPTVMFRRSYFEKAGLYPEDTYFGEDTMMWAKGFKSGCKFANVPEYLFKFRLDSNFFERRRGWKHAKSIYTLRHRVNRMLGFGWKEDCYALLYAMAKLMPKSILDIIYKTVR | failed
18 | MFDWLTNSTAIIIILPVVVFVLTLFLARFKFRKPQRRIMLAADLSTIFLIIAVHFFMIVIFNRSFLLYILLFLFILGIVIVVLAAKKEGEIQFRKILRGYWRLCFFIFALLYVVLYLYGIIYSLILLF | failed
19 | MTFNKKEKLSITALLIILYLIPAGLEWLEFDSENLHVIAISLPIWLAFFYLGPFWLFYWTQQNKHVARLHVVAQGVLYVLMMFAGANIVSRLHSMAFPQYQFPIKEQGLSAFLWGVFIFSMTHMYLLYQRFVQEQRLRKEAQLADLTSRLNPHFLFNSLNTISALIHSSPDKADDVLHKLSDILRYSVDQQNKWVPLEHELAVCETYLTVEKARFTDNLNISWQIASSVDMRQLKVPPLLLQPLIENVMKHVKRRPIELLISVQAEQGKLIFKVKDNGKGFSEPSLNEQSKAGQGLNIVKQRVDIAGGELSLFNDTSEQGGAVCEITLPIHACV | failed
20 | MNNKTNWVIIGRFGRPHGIKGFVTVHSFTDPADNILRYNDWHVFLNKQWQPLKLLTIEVRSKAIIAQIEGYPKRELVSALTNLDIGVQESQLAALAPGEYYWYQLIGMSVINSKGDLFGKVVEIMPTGSNDVLVVEGEKRHLIPYLPGQFVINVDESQQVITVDWDMNF | failed
21 | MSPRDVLDSIFAFPPNRDTLGGTSYLIVGNEGNILIDCPALDQTNLNFLRSHGGVRWLFLTHRGAIGRTAEIQQNYGCDILIQEQEAYLLPGLTVTTFTQEFAVTPTAKAIWTPGHSPGSSCLYYNHQGGVLFSGRHLLPNQKGEPVPLRTAKTFHWPRQIKSLQTILETLTPETLQYICPGANTGFLRGKRSIDTAYQRLASLDLKALLQTQPLILEHHHHHH | not failed
22 | NQLLGMHQIEKEMTQYFGIQRCIVVAGDSDIQKKVLSDFGDVLTNTLNLLLPNGENTIAVMGGTTMAMVAENMGSLETEKRHNLFVPARGGIGEAVSVQANSISAVMANKTGGNYRALYVPEQLSRETYNSLLQEPSIQEVLTLISHANCVVHSIGRALHMAARRKMSDDEMVMLKQKNAVAESFGYFFDEEGKVVYKIPRIGLQLKNLQEIPYVVAIAGGKTKAKAIRAYMKNAPKQTWLITDEAAANEILK | not failed
23 | MEYFLPLISIVTISYNAVNLIEKTILSVVEQDTADFEYIVIDGGSTDGTVEVIRKYENAISYWVSESDKGIFDAMNKALSVAKGDWVIFMNSGDCFYNNHVLSEIAIYMKDEETELIYGDVNLFSGKRNFIFKQRVSGININLNSVCHQTVFIRRKLHPYFDVRYKLTADHDIIFDFIKRGQYIHANIVIAKVLLGGVSHDVIKTSLEKLLISYRKGTFMDLLLSPLCNIYQVIKYFVKKLLISALPIELFNKMSRMKSKMESNFLEHHHHHH | not failed
24 | MPELPEVETTRRRLRPLVLGQTLRQVVHRDPARYRNTALAEGRRILEVDRRGKFLLFALEGGVELVAHLGMTGGFRLEPTPHTRAALVLEGRTLYFHDPRRFGRLFGVRRGDYREIPLLLRLGPEPLSEAFAFPGFFRGLKESARPLKALLLDQRLAAGVGNIYADEALFRARLSPFRPARSLTEEEARRLYRALREVLAEAVELGGSTLSDQSYRQPDGLPGGFQTRHAVYGREGLPCPACGRPVERRVVAGRGTHFCPTCQGEGP | not failed

Reference: a protein production outcome set (Wang et al. 2014)
